Data published in paper PMC6508891.

Assays:
[1] = molecular target: recombinant human VWF A1 domain with His tag (human); assay: SPR; BIAcore 3000; VWF A1A2A3 or single A domain amine-coupled to CM5; C3 or C4 perfused at 0-2.0 μM; 10 mM HEPES, 150 mM NaCl, 0.005% Tween-20, pH 7.4, 25°C, 10 µL/min; 1:1 Langmuir and shift baseline models
[2] = molecular target: recombinant human VWF A1A2A3 triple domain with His tag (human); assay: as above
[3] = molecular target: recombinant human VWF A3 domain with His tag (human); assay: as above
[4] = molecular target: purified human complement component C3 (human) (UniProt P01024); assay: SPR; BIAcore 3000; C3 or C4 amine-coupled to CM5; VWF A1A2A3 or single A domain perfused at 0-2.0 μM; 10 mM HEPES, 150 mM NaCl, 0.005% Tween-20, pH 7.4, 25°C, 10 µL/min; 1:1 Langmuir and shift baseline models
[5] = molecular target: purified human complement component C4 (human); assay: as above

Row | Substance | Kd [1] | Kd [2] | Kd [3] | Kd [4] | Kd [5]
1 | recombinant human VWF A1A2A3 triple domain with His tag (domain or fragment) |  |  |  | 232 nM | 523 nM
2 | purified human complement component C4 (natural protein) | 139 nM | > 2000 nM | > 2000 nM |  | 

Now from value to substance:

Row | Kd [1] | Kd [2] | Kd [3] | Kd [4] | Kd [5] | Substance
3 | 252 nM | 661 nM | 137 nM |  |  | purified human complement component C3 (from UniProt P01024 23-667; P01024 672-1663) (natural protein)
4 |  |  |  | 100 nM | > 2000 nM | recombinant human VWF A3 domain with His tag (domain or fragment)
5 |  |  |  | > 2000 nM | 504 nM | recombinant human VWF A1 domain with His tag (domain or fragment)
